T1: GTP-loaded Ras1.G17V (1-172) (Schizosaccharomyces pombe (fission …, UniProt P08647 1-172, G17V))
T1 construct: stopped with 20.5 mM MgCl2) just before the pull-down; Cloned in the vector pLEICS1; also called Ras1.G17V^GTP; source: E. coli BL21 Rosetta, purified (Ni Sepharose 6 Fast Flow), loaded with GTP
T1 sequence (looked up): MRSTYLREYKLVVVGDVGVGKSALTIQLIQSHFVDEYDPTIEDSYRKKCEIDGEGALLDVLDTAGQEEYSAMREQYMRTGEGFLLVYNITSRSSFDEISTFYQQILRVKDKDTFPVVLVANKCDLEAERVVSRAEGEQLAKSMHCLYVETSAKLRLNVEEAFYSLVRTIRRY

B1: GST-Scd1 (760-872) (domain or fragment, UniProt P40995 760-872, looked up)
chain: SSSTSTSLSVRNTTNVKIRLRLHEVSLVLVVAHDITFDELLAKVEHKIKLCGILKQAVPFRVRLKYVDEDGDFITITSDEDVLMAFETCTFELMDPVHNKGMDTVSLHVVVYF
notes: Cloned in the vector pLEICS4; also called GST-Scd1-PB1; Scd1-PB1; source: E. coli BL21 Rosetta, purified (glutathione sepharose 4B), kept on the beads; not shown: GST, N-terminal, kept
B2: Scd1 (760-872) fragment (domain or fragment, UniProt P40995 760-872, looked up)
chain: B1 chain
notes: legend and methods say the fragment freed of GST; also called Scd1-PB1; source: E. coli BL21 Rosetta; not shown: GST, N-terminal, cleaved
B3: GST-Byr2 (65-180) (domain or fragment, UniProt P28829 65-180, looked up)
chain: REFPRPCILRFIACNGQTRAVQSRGDYQKTLAIALKKFSLEDASKFIVCVSQSSRIKLITEEEFKQICFNSSSPERDRLIIVPKEKPCPSFEDLRRSWEIELAQPAALSSQSSLSP
notes: Cloned in the vector pLEICS4; also called GST-Byr2-RBD; Byr2-RBD; source: E. coli BL21 Rosetta, purified (glutathione sepharose 4B), kept on the beads; not shown: GST, N-terminal, kept

Assays:
[1] = molecular target: T1, GTP-loaded Ras1.G17V (1-172); experiment: pull-down; GST-Byr2 (65-180) or GST-Scd1 (760-872) on glutathione sepharose 4B beads, GTP-loaded Ras1.G17V (1-172) added; buffer A (20 mM Tris-Cl pH 7.5, 100 mM NaCl, 5 mM MgCl2, 1 mM beta-mercaptoethanol), 4 C, 30 min; bound fraction on SDS-PAGE, InstantBlue stain; conditions: both partners purified
[2] = molecular target: T1, GTP-loaded Ras1.G17V (1-172); experiment: pull-down; competition: GST-Byr2 (65-180) on glutathione beads, GTP-loaded Ras1.G17V (1-172) with or without the Scd1 (760-872) fragment; buffer A, 4 C, 30 min; Ras1.G17V band on the stained gel quantified with Fiji; conditions: both partners purified

Row | Binder | binding result [1] | binding result [2]
1 | B1 | binds | 
2 | B2 |  | binds
3 | B3 | binds | 
